Assay results from patent US20200317768A1 (published 2020).

T1: cynomolgus monkey FcγRIIa1 extracellular domain, C-terminal His-tag (cynomolgus monkey)
T1 construct: also called cyno FcγRIIa1; cynoFcgRIIa1; not shown: His-tag added to C-terminus
T1 chain: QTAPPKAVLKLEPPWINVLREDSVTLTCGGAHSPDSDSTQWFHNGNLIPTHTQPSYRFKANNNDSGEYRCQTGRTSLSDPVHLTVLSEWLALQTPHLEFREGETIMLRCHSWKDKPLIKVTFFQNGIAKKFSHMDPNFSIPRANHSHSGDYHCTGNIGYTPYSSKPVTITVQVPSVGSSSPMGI

T2: cynomolgus monkey FcγRIIa2 extracellular domain, C-terminal His-tag (cynomolgus monkey)
T2 construct: also called cyno FcγRIIa2; cynoFcgRIIa2; not shown: His-tag added to C-terminus
T2 chain: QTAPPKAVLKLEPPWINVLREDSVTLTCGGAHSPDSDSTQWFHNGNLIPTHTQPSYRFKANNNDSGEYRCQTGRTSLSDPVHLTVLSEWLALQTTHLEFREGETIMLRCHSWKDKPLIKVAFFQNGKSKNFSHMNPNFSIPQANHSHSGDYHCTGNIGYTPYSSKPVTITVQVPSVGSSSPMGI

T3: cynomolgus monkey FcγRIIa3 extracellular domain, C-terminal His-tag (cynomolgus monkey)
T3 construct: also called cyno FcγRIIa3; cynoFcgRIIa3; not shown: His-tag added to C-terminus
T3 chain: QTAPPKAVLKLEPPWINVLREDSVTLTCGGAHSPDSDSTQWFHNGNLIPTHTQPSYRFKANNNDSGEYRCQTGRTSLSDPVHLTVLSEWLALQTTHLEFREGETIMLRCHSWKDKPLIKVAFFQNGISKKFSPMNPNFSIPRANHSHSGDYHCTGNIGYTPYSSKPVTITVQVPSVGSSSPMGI

T4: cynomolgus monkey FcγRIIb extracellular domain, C-terminal His-tag (cynomolgus monkey)
T4 construct: also called cyno FcγRIIb; cynoFcγRIIb; not shown: His-tag added to C-terminus
T4 chain: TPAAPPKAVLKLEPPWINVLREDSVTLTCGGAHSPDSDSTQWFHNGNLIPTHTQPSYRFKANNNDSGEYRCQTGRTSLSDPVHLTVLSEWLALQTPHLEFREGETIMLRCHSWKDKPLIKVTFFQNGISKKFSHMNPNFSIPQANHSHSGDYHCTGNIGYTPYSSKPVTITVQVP

T5: human FcγRIIaH extracellular domain, C-terminal His-tag (human, UniProt P12318 34-217)
T5 construct: also called human FcγRIIa (type H); FcgRIIaH; not shown: His-tag added to C-terminus
T5 sequence: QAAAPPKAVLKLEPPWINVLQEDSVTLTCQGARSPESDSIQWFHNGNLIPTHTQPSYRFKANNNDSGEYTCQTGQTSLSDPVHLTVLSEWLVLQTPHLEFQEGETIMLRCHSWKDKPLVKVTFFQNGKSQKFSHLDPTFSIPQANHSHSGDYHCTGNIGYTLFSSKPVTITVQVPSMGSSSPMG

T6: human FcγRIIaR extracellular domain, C-terminal His-tag (human, UniProt P12318 34-217)
T6 construct: also called human FcγRIIa (type R); FcgRIIaR; not shown: His-tag added to C-terminus
T6 chain: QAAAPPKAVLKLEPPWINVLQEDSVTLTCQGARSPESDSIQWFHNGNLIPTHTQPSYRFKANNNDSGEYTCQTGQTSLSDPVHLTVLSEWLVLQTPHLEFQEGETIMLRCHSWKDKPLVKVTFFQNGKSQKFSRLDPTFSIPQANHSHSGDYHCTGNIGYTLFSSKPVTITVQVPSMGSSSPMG

T7: human FcγRIIb extracellular domain, C-terminal His-tag (human, UniProt P31994 43-217)
T7 construct: also called humanFcgRIIb; not shown: His-tag added to C-terminus
T7 sequence: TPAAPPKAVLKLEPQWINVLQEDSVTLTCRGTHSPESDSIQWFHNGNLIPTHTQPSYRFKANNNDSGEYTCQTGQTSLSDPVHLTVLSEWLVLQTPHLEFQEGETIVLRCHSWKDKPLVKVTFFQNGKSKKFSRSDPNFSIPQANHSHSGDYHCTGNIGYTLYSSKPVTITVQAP


Key:
[1] = molecular target: T1, cynomolgus monkey FcγRIIa1 …; assay: SPR (BIACORE), antibody captured, FcγR analyte
[2] = molecular target: T2, cynomolgus monkey FcγRIIa2 …; assay: SPR (BIACORE), antibody captured, FcγR analyte
[3] = molecular target: T3, cynomolgus monkey FcγRIIa3 …; assay: SPR (BIACORE), antibody captured, FcγR analyte
[4] = molecular target: T4, cynomolgus monkey FcγRIIb extracellular …; assay: SPR (BIACORE), antibody captured, FcγR analyte
[5] = molecular target: T8, cynomolgus monkey FcγRIIIaS extracellular domain, C-terminal His-tag (cynomolgus monkey, UniProt A3RFZ7 21-206 (rhesus entry)); assay: SPR (BIACORE), antibody captured, FcγR analyte
T8 construct: also called cyno FcγRIIIaS; cynoFcγRIIIaS; not shown: His-tag added to C-terminus

[6] = molecular target: T5, human FcγRIIaH extracellular domain, …; assay: SPR (BIACORE), antibody captured, FcγR analyte
[7] = molecular target: T6, human FcγRIIaR extracellular domain, …; assay: SPR (BIACORE), antibody captured, FcγR analyte
[8] = molecular target: T7, human FcγRIIb extracellular domain, …; assay: SPR (BIACORE), antibody captured, FcγR analyte
[9] = molecular target: T9, human FcγRIIIaV extracellular domain, C-terminal His-tag (human, UniProt P08637 17-208); assay: SPR (BIACORE), antibody captured, FcγR analyte
T9 construct: also called FcgRIIIaV; not shown: His-tag added to C-terminus

[10] = molecular target: T1, cynomolgus monkey FcγRIIa1 …; assay: SPR (BIACORE); KD of parent SG1 / KD of variant;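 also: relative to parent M103205H795-SG1 carrying the SG1 human heavy chain constant region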
[11] = molecular target: T2, cynomolgus monkey FcγRIIa2 …; assay: SPR (BIACORE); KD of parent SG1 / KD of variant;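 also: relative to parent M103205H795-SG1 carrying the SG1 human heavy chain constant region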
[12] = molecular target: T3, cynomolgus monkey FcγRIIa3 …; assay: SPR (BIACORE); KD of parent SG1 / KD of variant;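 also: relative to parent M103205H795-SG1 carrying the SG1 human heavy chain constant region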
[13] = molecular target: T4, cynomolgus monkey FcγRIIb extracellular …; assay: SPR (BIACORE); KD of parent SG1 / KD of variant;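 also: relative to parent M103205H795-SG1 carrying the SG1 human heavy chain constant region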
[14] = molecular target: T8, cynomolgus monkey FcγRIIIaS …; assay: SPR (BIACORE); KD of parent SG1 / KD of variant
[15] = molecular target: T5, human FcγRIIaH extracellular domain, …; assay: SPR (BIACORE); KD of parent SG1 / KD of variant
[16] = molecular target: T6, human FcγRIIaR extracellular domain, …; assay: SPR (BIACORE); KD of parent SG1 / KD of variant
[17] = molecular target: T7, human FcγRIIb extracellular domain, …; assay: SPR (BIACORE); KD of parent SG1 / KD of variant
[18] = molecular target: T9, human FcγRIIIaV extracellular domain, …; assay: SPR (BIACORE); KD of parent SG1 / KD of variant

T8 sequence (A3RFZ7 21-206): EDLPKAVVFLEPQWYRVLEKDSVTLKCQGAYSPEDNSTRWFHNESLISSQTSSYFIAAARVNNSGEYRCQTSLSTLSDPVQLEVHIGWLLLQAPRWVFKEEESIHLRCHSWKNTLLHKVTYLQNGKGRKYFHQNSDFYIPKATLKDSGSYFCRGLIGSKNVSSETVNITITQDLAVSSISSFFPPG
T9 sequence (P08637 17-208 F176V): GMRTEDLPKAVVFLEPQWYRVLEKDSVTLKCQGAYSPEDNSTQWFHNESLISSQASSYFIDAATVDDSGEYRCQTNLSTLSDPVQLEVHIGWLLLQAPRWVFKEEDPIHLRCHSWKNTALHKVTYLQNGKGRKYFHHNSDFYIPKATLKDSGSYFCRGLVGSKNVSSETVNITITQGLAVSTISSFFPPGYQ

Kd [1] | Kd [2] | Kd [3] | Kd [4] | Kd [5] | Kd [6] | Kd [7] | Kd [8] | Kd [9] | KD fold (SG1 = 1) [10] | KD fold (SG1 = 1) [11] | KD fold (SG1 = 1) [12] | KD fold (SG1 = 1) [13] | KD fold (SG1 = 1) [14] | KD fold (SG1 = 1) [15] | KD fold (SG1 = 1) [16] | KD fold (SG1 = 1) [17] | KD fold (SG1 = 1) [18] | Binder
1200 nM | 1500 nM | 2100 nM | 530 nM | 5800 nM | 690 nM | 1200 nM | 680 nM | 14000 nM | 3 fold | 3.2 fold | 3.1 fold | 5.3 fold | 0.07 fold | 1.4 fold | 0.8 fold | 5.6 fold | 0.04 fold | M103240H795-SG1071 / M103202L1045-SK1 (antibody, CH with G236N/H268D/Q295L/Q311R/A330K/D413K/M428L/N434A/Y436T/Q438R/S440E against SG1 (EU numbering); also called MS1032LO19-SG1071) heavy: QVQLVESGGGLVQPGGSLRLSCAVSGIDLSHDDISWVRQAPGKGLEWVSIISYAGSTYYASWAKGRLTISKDTSKNQVVLTMTNMDPVDTATYYCARGVPAYSHGGDLWGQGTLVTVSSASTKGPSVFPLAPSSKSTSGGTAALGCLVKDYFPEPVTVSWNSGALTSGVHTFPAVLQSSGLYSLSSVVTVPSSSLGTQTYICNVNHKPSNTKVDKKVEPKSCDKTHTCPPCPAPELLNGPSVFLFPPKPKDTLMISRTPEVTCVVVDVSDEDPEVKFNWYVDGVEVHNAKTKPREELYNSTYRVVSVLTVLHRDWLNGKEYKCKVSNKALPKPIEKTISKAKGQPREPQVYTLPPSREEMTKNQVSLTCLVKGFYPSDIAVEWESNGQPENNYKTTPPVLDSDGSFFLYSKLTVKKSRWQQGNVFSCSVLHEALHAHTTRKELSLSP light: DIVMTQSPATLSLSPGERATLSCTTSQSVYHENWLSWFQQKPGQPPKLLIYWASTLAYGVPSRFSGSGSGTDFTLTISSLQPEDAATYYCAGGYGGGRYAFGQGTKVEIKRTVAAPSVFIFPPSDEQLKSGTASVVCLLNNFYPREAKVQWKVDNALQSGNSQESVTEQDSKDSTYSLSSTLTLSKADYEKHKVYACEVTHQGLSSPVTKSFNRGEC
1100 nM | 1200 nM | 2100 nM | 300 nM | 3300 nM | 670 nM | 1200 nM | 690 nM | 5200 nM | 3.4 fold | 3.4 fold | 3.2 fold | 5.7 fold | 0.08 fold | 1.4 fold | 0.8 fold | 5.6 fold | 0.18 fold | M103240H795-SG1079 / M103202L1045-SK1 (antibody, CH with G236N/H268D/Q295L/Q311R/A330K/D413K/N434A/Q438R/S440E against SG1 (EU numbering); also called MS1032LO19-SG1079) heavy: QVQLVESGGGLVQPGGSLRLSCAVSGIDLSHDDISWVRQAPGKGLEWVSIISYAGSTYYASWAKGRLTISKDTSKNQVVLTMTNMDPVDTATYYCARGVPAYSHGGDLWGQGTLVTVSSASTKGPSVFPLAPSSKSTSGGTAALGCLVKDYFPEPVTVSWNSGALTSGVHTFPAVLQSSGLYSLSSVVTVPSSSLGTQTYICNVNHKPSNTKVDKKVEPKSCDKTHTCPPCPAPELLNGPSVFLFPPKPKDTLMISRTPEVTCVVVDVSDEDPEVKFNWYVDGVEVHNAKTKPREELYNSTYRVVSVLTVLHRDWLNGKEYKCKVSNKALPKPIEKTISKAKGQPREPQVYTLPPSREEMTKNQVSLTCLVKGFYPSDIAVEWESNGQPENNYKTTPPVLDSDGSFFLYSKLTVKKSRWQQGNVFSCSVMHEALHAHYTRKELSLSP light: DIVMTQSPATLSLSPGERATLSCTTSQSVYHENWLSWFQQKPGQPPKLLIYWASTLAYGVPSRFSGSGSGTDFTLTISSLQPEDAATYYCAGGYGGGRYAFGQGTKVEIKRTVAAPSVFIFPPSDEQLKSGTASVVCLLNNFYPREAKVQWKVDNALQSGNSQESVTEQDSKDSTYSLSSTLTLSKADYEKHKVYACEVTHQGLSSPVTKSFNRGEC
700 nM | 680 nM | 1100 nM | 160 nM | 1400 nM | 450 nM | 540 nM | 380 nM | 4500 nM | 5.4 fold | 6.1 fold | 6.2 fold | 11.1 fold | 0.19 fold | 2.2 fold | 1.8 fold | 10.2 fold | 0.18 fold | M103240H795-SG1074 / M103202L1045-SK1 (antibody, CH with G236N/H268D/Q295L/Q311R/K326T/A330K/P343R/M428L/N434A/Y436T/Q438R/S440E against SG1 (EU numbering); also called MS1032LO19-SG1074) heavy: QVQLVESGGGLVQPGGSLRLSCAVSGIDLSHDDISWVRQAPGKGLEWVSIISYAGSTYYASWAKGRLTISKDTSKNQVVLTMTNMDPVDTATYYCARGVPAYSHGGDLWGQGTLVTVSSASTKGPSVFPLAPSSKSTSGGTAALGCLVKDYFPEPVTVSWNSGALTSGVHTFPAVLQSSGLYSLSSVVTVPSSSLGTQTYICNVNHKPSNTKVDKKVEPKSCDKTHTCPPCPAPELLNGPSVFLFPPKPKDTLMISRTPEVTCVVVDVSDEDPEVKFNWYVDGVEVHNAKTKPREELYNSTYRVVSVLTVLHRDWLNGKEYKCKVSNTALPKPIEKTISKAKGQRREPQVYTLPPSREEMTKNQVSLTCLVKGFYPSDIAVEWESNGQPENNYKTTPPVLDSDGSFFLYSKLTVDKSRWQQGNVFSCSVLHEALHAHTTRKELSLSP light: DIVMTQSPATLSLSPGERATLSCTTSQSVYHENWLSWFQQKPGQPPKLLIYWASTLAYGVPSRFSGSGSGTDFTLTISSLQPEDAATYYCAGGYGGGRYAFGQGTKVEIKRTVAAPSVFIFPPSDEQLKSGTASVVCLLNNFYPREAKVQWKVDNALQSGNSQESVTEQDSKDSTYSLSSTLTLSKADYEKHKVYACEVTHQGLSSPVTKSFNRGEC
